Source: patent publication US20260085127A1 (BRIGHTPATH BIOTHERAPEUTICS, published 2026)
Numbering of substitutions follows the chain as printed.

T1: human CD39 (Accession No. NM_001776.6) expressed on cells (human, UniProt P49961 1-510)
T1 construct: whole, on cells; On Jurkat, 293T or SK-MEL28 cells; also called Jurkat/CD39; 293T/CD39
T1 sequence (looked up): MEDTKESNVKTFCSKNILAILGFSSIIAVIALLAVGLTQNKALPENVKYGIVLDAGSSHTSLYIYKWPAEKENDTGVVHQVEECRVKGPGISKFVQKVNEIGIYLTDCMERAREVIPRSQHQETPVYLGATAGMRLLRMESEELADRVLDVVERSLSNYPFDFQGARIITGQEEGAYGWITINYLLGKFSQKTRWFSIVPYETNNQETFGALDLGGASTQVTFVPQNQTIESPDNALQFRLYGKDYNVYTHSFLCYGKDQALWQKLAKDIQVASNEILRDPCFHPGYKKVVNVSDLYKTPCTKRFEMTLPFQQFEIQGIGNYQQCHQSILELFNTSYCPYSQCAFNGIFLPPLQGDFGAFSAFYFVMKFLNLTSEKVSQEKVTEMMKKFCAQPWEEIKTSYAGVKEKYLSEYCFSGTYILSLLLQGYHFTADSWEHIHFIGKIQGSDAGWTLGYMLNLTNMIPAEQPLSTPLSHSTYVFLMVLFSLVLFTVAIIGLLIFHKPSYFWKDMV

B1: T86_LA (antibody, V domains shown)
VH: QIQLVQSGPELKKPGETVKISCEASGYTFINYGMNWVKQAPGKGLKWMGWINTYTGEPTYADDFKGRFAFSLETSANTAYLQINNLKNEDTATYFCARKGYYGYPNYYAMDYWGQGTSVTVSS
VL: DIVMTQSQKFMSTSVGDRVSITCKASQNVGTAVAWYQQKPGQSPKLLIYSASNRYTGVPDRFTGSGSGTDFTLTISNMQSEDLADYFCQQYSSYPITFGTGTKLEIK
notes: also called IgG1-LALA antibody of anti-CD39 antibody T86
B2: mAnE67_LA (antibody, V domains shown)
VH: EVQLVESGGGLVKPGGSRKLSCAASGFTFSDYGMHWVRQAPEKGLEWVAYISSGSSIIYYADTVKGRFTISRDNAKNTLFLQMTGLRSEDTAMYYCARKDYPYAMDYWGQGTSLAVSS
VL: SIVMTQTPKFMSTSVGDRVSVTCKASQNVGTNVAWYQQKPGQSPKALIYWASNRFTGVPDRFTGSGSGTDFTLTISNVQSEDLADYFCQQYSSSPYTFGSGTKLEIK
notes: also called IgG1-LALA antibody of anti-CD39 antibody mAnE67
B3: I67_LA (antibody, V domains shown)
VH: DVQLQESGPSLVQPSQSLSINCTVSGFSLSSYGVHWVRQSPGKGLEWLGVIWRRGSTDYNAAFMSRLSITKDNSKSQVFFKMNRLQADDTATYYCAKGISTATSWFAYWGQGTLVTVSA
VL: DIVMTQSHKFMSTSVGDRVSVTCKASQNVGTNVAWYQQKPGQSPKALIYSASYRYSGVPDRFTGSGSGTDFTLTISNVQSEDLAEYFCQQYNSYPLTFGAGTKLELK
notes: also called IgG1-LALA antibody of anti-CD39 antibody I67
B4: Tre291_LA (antibody, V domains shown)
VH: QVQLKQSGPGLVQPSQSLSITCTVSGFSLTSYGVHWVRQSPGKGLEWLGVIWRRGSTDYNAAFMSRLSITKDTSKSQVFFKMNSLQTDDTAIYYCAGVRGDAMDYWGQGTSVTVSS
VL: B3 VL with F10S, A100G, L106I

What follows are binders tested against T1, human CD39 (Accession No. NM_001776.6) … (assay: flow cytometry, 293T/CD39 cells, KD from MFI).
Source text: (§1) The stained cells were suspended in staining buffer and analyzed by flow cytometer.

| Binder | Kd |
| --- | --- |
| B1 | 2.67 nM |
| B2 | 1.8 nM |
| B3 | 1.73 nM |
| B4 | 2.44 nM |

What follows are binders tested against T1, human CD39 (Accession No. NM_001776.6) … (assay: flow cytometry, 293T/TIM-3 + CD39 cells, KD from MFI).
Source text: as §1

| Binder | Kd |
| --- | --- |
| B1 | 5.09 nM |
| B2 | 3.66 nM |
| B3 | 4.19 nM |
| B4 | 4.79 nM |
